# B1: library; numbered along this chain (parent)
# chain: MAAAAAAAAEQQSSNGPVKKSMREKAVERRSVNKEHNSNFKAGYIPIDEDRLHKTGLRGRKGNLAICVIILLFILAVINLIITLVIWAVIRIGPNGCDSMEFHESGLLRFKQVSDMGVIHPLYKSTVGGRRNENLVITGNNQPIVFQQGTTKLSVENNKTSITSDIGMQFFDPRTQNILFSTDYETHEFHLPSGVKSLNVQKASTERITSNATSDLNIKVDGRAIVRGNEGVFIMGKTIEFHMGGNMELKAENSIILNGSVMVSTTRLPSSSSGDQLGSGDWVRYKLCMCADGTLFKVQVTSQNMGCQISDNPCGNTH
# Variants of: B1
# Test: SGCB cell-surface expression functional score (HA stain, bin4 vs bin1, normalised to synonymous) (log10 ratio); higher = more cell-surface SGCB (functional)
# How it was run: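 The functional score is a log ratio of variant frequency in the highest versus the lowest intensity bin, expressed as a median over codons and duplicate transductions. Codon-saturation libraries of HA-tagged, YFP-fused human beta-sarcoglycan were transduced by lentivirus at MOI <0.1 into HEK293 cells stably expressing alpha-, gamma- and delta-sarcoglycan, and the cells were stained on ice with Alexa Fluor 647 anti-HA, fixed and sorted into four 5% intensity bins before amplicon sequencing. Synonymous variants were scaled to mean 0, SD 0.5 within each section.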
row,Variant,SGCB cell-surface expression functional score (log10)
1,K237F,0.86
2,K237A,0.85
3,K237D,0.73
4,K237E,0.47
5,K237C,0.61
6,K237G,0.05
7,N229S,0.94
8,N229K,0.95
9,N229I,0.92
10,N229L,0.33
11,N229V,0.87
12,N229F,1.19
13,N229R,0.82
14,N229C,0.72
15,N229G,0.8
16,N229E,0.51
17,N229W,0
18,N229A,0.8
19,N229P,0.68
20,N229Y,-0.25
21,N229Q,0.93
22,N229D,0.08
23,N229H,1.03
24,N229M,1.28

row,Variant,SGCB cell-surface expression functional score (log10)
1,N229T,0.29
2,M235V,0.18
3,M235P,-0.94
4,M235W,0.91
5,M235I,0.26
6,M235D,-0.066
7,M235C,0.86
8,M235G,0.75
9,M235E,0
10,M235H,0.69
11,M235T,0.37
12,M235F,0.84
13,M235L,0.66
14,M235Q,0.65
15,M235R,0.56
16,M235K,0.78
17,M235Y,0.92
18,M235N,1.02
19,M235S,0.53
20,M235A,0.36
21,G236T,-0.62
22,G236M,-2.18
23,G236F,-1.96
24,G236N,-1.82

row,Variant,SGCB cell-surface expression functional score (log10)
1,G236W,-2.11
2,G236V,-1.25
3,G236E,-1.08
4,G236L,-1.75
5,G236R,-1.3
6,G236I,-1.64
7,G236D,-0.43
8,G236P,-1.06
9,G236H,-1.67
10,G236S,-0.08
11,G236C,-1.64
12,G236Q,0.48
13,G236A,0.11
14,G236Y,-1.44
15,G236K,-2
16,F233A,0.97
17,F233Q,0.77
18,F233R,0.69
19,F233L,0.47
20,F233E,0.63
21,F233W,0.09
22,F233V,0.18
23,F233H,0.36
24,F233I,0.99

row,Variant,SGCB cell-surface expression functional score (log10)
1,F233S,0.62
2,F233C,-0.13
3,F233P,-1.53
4,F233Y,0.56
5,F233T,0.7
6,F233M,1.15
7,F233G,-0.1
8,F233D,-0.146
9,F233N,0.87
10,F233K,0.34
11,G228Q,-1.35
12,G228T,-0.37
13,G228S,0.43
14,G228W,-1.51
15,G228R,-0.47
16,G228Y,-2.12
17,G228P,-1.47
18,G228N,-0.63
19,G228V,-1.04
20,E230M,0.53
21,E230F,1.05
22,E230Q,0.32
23,E230A,0.38
24,E230H,0.9

row,Variant,SGCB cell-surface expression functional score (log10)
1,E230Y,0.86
2,E230L,0.63
3,E230T,1.29
4,E230N,0.82
5,E230C,1.05
6,E230D,0.26
7,E230K,0.42
8,E230W,0.47
9,E230P,-0.01
10,E230S,0.75
11,E230G,0.43
12,E230R,0.28
13,E230V,0.49
14,E230I,0.14
15,I234Q,-1.65
16,I234R,-1.51
17,I234L,0.43
18,I234V,0.49
19,I234C,0.01
20,I234F,1.03
21,I234S,-0.92
22,I234P,-0.22
23,I234H,-1.04
24,I234Y,-0.62

row,Variant,SGCB cell-surface expression functional score (log10)
1,I234N,-1.67
2,I234T,0.09
3,I234M,0.48
4,I234A,-0.02
5,I234D,-0.5
6,I234K,-1.32
7,I234G,-1
8,I234W,0.32
9,I234E,-1.49
10,V232H,0.69
11,V232D,-1.72
12,V232T,0
13,V232M,0.68
14,V232I,0.47
15,V232F,0.02
16,V232K,-1.43
17,V232W,-1.85
18,V232S,-0.67
19,V232Q,-1.69
20,V232C,0.7
21,V232P,-0.64
22,V232Y,-1.09
23,V232G,-0.27
24,V232L,0.35

row,Variant,SGCB cell-surface expression functional score (log10)
1,V232R,-1.12
2,V232A,-0.53
3,V232N,-1.99
4,V232E,-1.63
5,G231V,-1.02
6,G231I,-1.29
7,G231E,0.17
8,G231H,-0.09
9,G231S,-0.88
10,G231N,-0.19
11,G231A,-0.01
12,G231M,-1.23
13,G231W,-1.9
14,G231P,-1.37
15,G231Q,-0.92
16,G231D,-0.08
17,G231C,-0.5
18,G231Y,0.68
19,G231K,-1.12
20,G231L,-0.37
21,G231F,-0.12
22,G231R,0.27
23,G231T,-0.29

# Reference: the supplement of paper PMC10266784
